In US20240229045, “APTAMER FOR SPECIFICALLY RECOGNIZING SOLUBLE ST2 PROTEIN AND APPLICATION OF THE SAME” (BEIJING INSTITUTE OF HEART, LUNG AND BLOOD VESSEL DISEASES, published 2024):

Key:
[1] = target: T1, soluble ST2 (sST2, IL1RL1 soluble isoform) (Homo sapiens, UniProt Q01638-2 Q01638-2:19-328); test: fiber-optic fluorescence, sST2 immobilised; 137 mM NaCl, 2.7 mM KCl, phosphate
[2] = target: T1, soluble ST2 (sST2, IL1RL1 soluble …); test: EMSA; strong binding; room temperature 30 min
Experimental: According to the experimental formula shown in Table 4, the aptamer was added to the buffer solution and nuclease-free water, heated at 95° C. for 10 minutes, quenched on ice for 10 minutes, and room temperature for 10 minutes.
The above DNA solution and sST2 protein were slowly mixed to a final volume of 20 μL, and a sample containing only aptamer and no protein was used as a negative control, and incubated with rotation at room temperature for 30 minutes.

T1 sequence (Q01638 other isoform, or with tags, fused parts or gaps): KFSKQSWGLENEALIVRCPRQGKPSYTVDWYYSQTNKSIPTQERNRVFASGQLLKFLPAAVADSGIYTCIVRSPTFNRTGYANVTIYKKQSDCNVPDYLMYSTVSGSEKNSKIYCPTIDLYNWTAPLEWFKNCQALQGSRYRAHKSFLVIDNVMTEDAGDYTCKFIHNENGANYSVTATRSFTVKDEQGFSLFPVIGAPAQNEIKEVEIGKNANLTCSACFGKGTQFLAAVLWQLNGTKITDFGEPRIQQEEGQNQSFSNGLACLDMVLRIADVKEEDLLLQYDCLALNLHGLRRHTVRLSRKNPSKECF

Binder | Kd [1] [nM] | binding result [2]
TCCATCCACTCGGGGCGGGGGCTCGTGCTCTATTTC (ssDNA) [Apt4] | 127 | 
TCCATCCACTCGGGGCTAGAAGCCGTGAGAATCTG (ssDNA) [Apt1] |  | binds
TCCATCCACTCGGCGCCACGCGGTTTCTCCAGATT (ssDNA) [Apt8] |  | binds
TCCATCCACTCGGCCTACTAAGGGTTTCGTTCACC (ssDNA) [Apt3] |  | binds
TCCATCCACTCGGGCCCTAGGGCGTGTATGTCCAT (ssDNA) [Apt2] |  | binds
